Results published in patent publication US12624097B2, “Nucleic acids, vectors, and cells that encode anti-Sp17 antibodies and other Sp17 binding proteins” (Medicovestor, Inc., priority 2023, dated 2026).
“Also recorded” adds a separate entry of the source.

Legend:
[1] = test system: 33 normal human tissues; test: Immunohistochemistry on a normal tissue microarray (specificity); details: 33 normal tissues, 2-3 human donors per tissue
Method: The specificity of the chAB2 antibody for Sp17 was determined with immunohistochemistry on a normal tissue microarray, which consisted of 33 normal tissues obtained from 2-3 human donors per tissue. The normal tissues included brain, eye, adrenal gland, hypophyseal, thyroid, parathyroid, tonsil, thymus, spleen, heart, lung, larynx, esophagus, stomach, small intestine, colon, liver, pancreas, salivary gland, kidney, bone, skeletal, skin, peripheral nerve, mesothelial, breast, ovary, endometrium, cervix, testis, and prostate.

[2] = biological target: T1, Sp17 protein (Homo sapiens, UniProt Q15506); test: Western blot detection of Sp17 protein; assay type: binding
T1 sequence (Q15506 1-151): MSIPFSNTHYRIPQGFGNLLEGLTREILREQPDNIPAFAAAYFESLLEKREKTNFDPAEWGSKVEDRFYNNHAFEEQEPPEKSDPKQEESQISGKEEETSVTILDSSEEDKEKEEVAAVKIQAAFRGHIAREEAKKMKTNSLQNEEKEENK
Text: The nucleotide sequences encoding the VH and VL regions of Example 1 were cloned into a […] heavy chain gene and a mouse kappa light chain gene, respectively, and expressed in CHO-S cells to produce a mouse-human chimeric antibody, which was named chAB2. Successful generation of the antibody was confirmed by SDS-PAGE and western blotting using anti-mouse heavy and light chain antibodies and recombinant Sp17 protein (FIGS. 2 & 3).
The VH and VL nucleotide sequences of Example 1 were cloned into a human IgG4 heavy chain gene and a human kappa light chain gene, respectively. A Ser228Pro mutation was introduced in the heavy chain to reduce non-specific Fc receptor gamma binding. The resultant antibody was named SP17-AB2. Successful cloning was confirmed by sequence analysis. The amino acid sequences of the heavy chain and light chain are shown in Table 4, and the Ser228Pro mutation is underlined in SEQ ID NO: 11.

B1: chAB2: mouse-human chimeric anti-Sp17 monoclonal antibody; human VH/VL (SEQ ID NO: 3, 4) with mouse IgG2a heavy and mouse kappa light chain (antibody, V domains shown)
VH: QVQLQQSGAEVKKPGSSVKVSCKASGGTFSSYAISWVRQAPGQGLEWMGRIIPILGIANYAQKFQGRVTITADKSTSTAYMELSSLRSEDTAVYYCARPSEEVVAAYGAFDIWGQGTTVTVSS
VL: EIVLTQSPLSLPVRPGEPASISCRASQSLLRSDGFNYLDWYLQKPGQSPQLLVYLGSNRASGVPDRFSGSGSGTDFTLKISRVEAEDVGVYYCMQAVQTPYIFGQGTKLEIK
modifications: mouse IgG2a heavy and mouse kappa constant regions
Q: With B1 as the molecule, how does the “binding to normal tissues (cross-reactivity)” value [1] read?
A: Its value is “bound to testis and did not bind to normal tissues; also recorded: lack detectable cross-reactivity”.

Q: And the “binding to Sp17 protein by western blot” value [2]?
A: Its value is “Sp17 protein was detected”.
